One molecule from patent US20140294898A1 can be followed below.

Assay [1] has as its target hPDL1(19-239)-TVMV-His (human) (UniProt Q9NZQ7). Briefly: HTRF competition of PD-1-Ig binding to PD-L1-His; cluster 3 = IC50 0.03045 to >10 uM or not done.
The target of another assay is human PD-L1 (human) (UniProt Q9NZQ7). Put plainly: cell binding assay (CBA), PE-labeled PD-1-Ig on cells over-expressing human PD-L1; cluster 3 = IC50 0.07431 to >10 uM or not done.

Positions of bridges follow the written chain, without caps; N, C: chain ends. Non-standard residues stand in square brackets, D forms with d. Phe(F5) = N[C@@H](Cc1c(F)c(F)c(F)c(F)c1F)C(=O)O; NMeF = CN[C@@H](Cc1ccccc1)C(=O)O; NMeNle = CCCC[C@H](NC)C(=O)O; Sar = CNCC(=O)O

hPDL1(19-239)-TVMV-His (human), sequence (Q9NZQ7 other isoform, or with tags, fused parts or gaps limits assumed): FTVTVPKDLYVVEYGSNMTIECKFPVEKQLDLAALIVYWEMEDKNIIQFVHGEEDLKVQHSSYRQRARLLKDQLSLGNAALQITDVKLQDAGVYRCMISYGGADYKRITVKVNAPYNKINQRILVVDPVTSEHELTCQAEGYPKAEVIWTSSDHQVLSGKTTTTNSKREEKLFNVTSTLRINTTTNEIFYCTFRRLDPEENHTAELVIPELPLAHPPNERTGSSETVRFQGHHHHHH
human PD-L1 (human), sequence (Q9NZQ7 19-290): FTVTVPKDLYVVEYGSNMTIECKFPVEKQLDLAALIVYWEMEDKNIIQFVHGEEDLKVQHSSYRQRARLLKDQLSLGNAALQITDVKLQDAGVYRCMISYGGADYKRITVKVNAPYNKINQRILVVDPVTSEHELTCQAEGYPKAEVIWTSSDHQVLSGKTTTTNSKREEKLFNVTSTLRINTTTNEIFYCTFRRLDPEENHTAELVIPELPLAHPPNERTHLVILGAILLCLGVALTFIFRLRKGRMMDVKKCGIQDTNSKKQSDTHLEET

B1: Example 3078 (peptide)
peptide: {CH2CO}-[Phe(F5)][NMeF][NMeNle][Sar]DV[NMeF]Y[Sar]WYLCG-NH2
modifications: thioether N-13
SMILES: CCCC[C@H]1C(=O)N(C)CC(=O)N[C@@H](CC(=O)O)C(=O)N[C@@H](C(C)C)C(=O)N(C)[C@@H](Cc2ccccc2)C(=O)N[C@@H](Cc2ccc(O)cc2)C(=O)N(C)CC(=O)N[C@@H](Cc2c[nH]c3ccccc23)C(=O)N[C@@H](Cc2ccc(O)cc2)C(=O)N[C@@H](CC(C)C)C(=O)N[C@H](C(=O)NCC(N)=O)CSCC(=O)N[C@@H](Cc2c(F)c(F)c(F)c(F)c2F)C(=O)N(C)[C@@H](Cc2ccccc2)C(=O)N1C
In assay [1], B1 returned an HTRF IC50 cluster of 3 cluster. In the assay with human PD-L1 (human), this molecule registered a CBA IC50 cluster of 3 cluster.
